The results in this text go back to US20170204382A1.

Sequences and labels used below:
T1: GDF11 (UniProt O95390)
T1 sequence (looked up): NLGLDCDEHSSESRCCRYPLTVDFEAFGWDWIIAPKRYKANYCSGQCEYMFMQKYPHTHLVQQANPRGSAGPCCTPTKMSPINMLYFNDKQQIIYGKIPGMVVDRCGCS

T2: Activin A (UniProt P08476)
T2 sequence (looked up): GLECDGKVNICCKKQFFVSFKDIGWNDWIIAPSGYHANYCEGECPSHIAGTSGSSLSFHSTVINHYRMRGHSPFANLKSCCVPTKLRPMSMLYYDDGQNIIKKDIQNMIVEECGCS

B1: ActRIIB(20-131)-hFc (Fc fusion, not shown: a dimerising Fc or GST)
chain: GRGEAETRECIYYNANWELERTNQSGLERCEGEQDKRLHCYASWRNSSGTIELVKKGCWLDDFNCYDRQECVATEENPQVYFCCCEGNFCNERFTHLPEAGGPEVTYEPPPT
B2: ActRIIB(24-131)-hFc (Fc fusion, not shown: a dimerising Fc or GST)
chain: AETRECIYYNANWELERTNQSGLERCEGEQDKRLHCYASWRNSSGTIELVKKGCWLDDFNCYDRQECVATEENPQVYFCCCEGNFCNERFTHLPEAGGPEVTYEPPPT
B3: ActRIIB(21-131)-hFc (Fc fusion, not shown: a dimerising Fc or GST)
chain: RGEAETRECIYYNANWELERTNQSGLERCEGEQDKRLHCYASWRNSSGTIELVKKGCWLDDFNCYDRQECVATEENPQVYFCCCEGNFCNERFTHLPEAGGPEVTYEPPPT
B4: ActRIIB(23-131)-hFc (Fc fusion, not shown: a dimerising Fc or GST)
chain: EAETRECIYYNANWELERTNQSGLERCEGEQDKRLHCYASWRNSSGTIELVKKGCWLDDFNCYDRQECVATEENPQVYFCCCEGNFCNERFTHLPEAGGPEVTYEPPPT
B5: ActRIIB(22-131)-hFc (Fc fusion, not shown: a dimerising Fc or GST)
chain: GEAETRECIYYNANWELERTNQSGLERCEGEQDKRLHCYASWRNSSGTIELVKKGCWLDDFNCYDRQECVATEENPQVYFCCCEGNFCNERFTHLPEAGGPEVTYEPPPT
B6: ActRIIB(20-128)-hFc (Fc fusion, not shown: a dimerising Fc or GST)
chain: GRGEAETRECIYYNANWELERTNQSGLERCEGEQDKRLHCYASWRNSSGTIELVKKGCWLDDFNCYDRQECVATEENPQVYFCCCEGNFCNERFTHLPEAGGPEVTYEP
B7: ActRIIB(20-132)-hFc (Fc fusion, not shown: a dimerising Fc or GST)
chain: GRGEAETRECIYYNANWELERTNQSGLERCEGEQDKRLHCYASWRNSSGTIELVKKGCWLDDFNCYDRQECVATEENPQVYFCCCEGNFCNERFTHLPEAGGPEVTYEPPPTA

For the first experiment, the target named is T1, GDF11. The experiment in a line: cell-based or functional assay.
Molecule B1 yielded an IC50 (ng/mL), conditioned media of 183 ng/mL.

B2 had an IC50 (ng/mL), conditioned media of 69 ng/mL.

Molecule B3 returned an IC50 (ng/mL), conditioned media of 121 ng/mL.

For B4, the IC50 (ng/mL), conditioned media amounted to 60 ng/mL.

Regarding B5, the IC50 (ng/mL), conditioned media worked out at 71 ng/mL.

The next experiment deals with T2, Activin A. The experiment is described as follows: cell-based or functional assay.
Turning to B1, the IC50 (ng/mL), conditioned media is 201 ng/mL.

On to B2, for which the IC50 (ng/mL), conditioned media is 105 ng/mL.

In turn, B3 had an IC50 (ng/mL), conditioned media of 325 ng/mL.

In the case of B4, the IC50 (ng/mL), conditioned media is 43 ng/mL.

Consider B5, for which the IC50 (ng/mL), conditioned media was 100 ng/mL.

The target of another experiment is T1, GDF11. The experiment is described as follows: cell-based or functional assay. The source holds these as a separate data set.
In turn, B1 yielded an IC50 (ng/mL), conditioned media of 120 ng/mL.

B6 displayed an IC50 (ng/mL), conditioned media of 130 ng/mL.

The molecule B7 returned an IC50 (ng/mL), conditioned media of 87 ng/mL.

The next experiment deals with T2, Activin A. The experiment is described as follows: cell-based or functional assay. This is another data set of the same source.
The molecule B1 registered an IC50 (ng/mL), conditioned media of 44 ng/mL.

With B6, the IC50 (ng/mL), conditioned media was found to be 158 ng/mL.

On to B7, for which the IC50 (ng/mL), conditioned media was determined as 32 ng/mL.
